Measurements reported in patent US20250333501A1 (University of California, published 2025).

Assays:
[1] = molecular target: T1, CLDN6 endogenously expressed by human cancer cell lines (ARK2, OVCA429) (human, UniProt P56747 1-220); test: FACS, 1.5 µg Ab, ARK2 cells
T1 construct: Untagged endogenous protein; also called Endogenous CLDN6+
T1 sequence: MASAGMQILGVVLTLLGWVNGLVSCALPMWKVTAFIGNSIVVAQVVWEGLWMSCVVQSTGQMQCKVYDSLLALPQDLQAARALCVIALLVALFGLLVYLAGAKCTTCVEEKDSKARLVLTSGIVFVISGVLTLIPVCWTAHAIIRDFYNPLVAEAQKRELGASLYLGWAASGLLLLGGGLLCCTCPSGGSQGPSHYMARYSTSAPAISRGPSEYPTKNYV
Experimental: (§1) FACS assays were also carried out to determine relative antigen binding strengths of the humanized antibodies (at either 1.5 μg or 0.3 μg) for binding to CLDN6 as expressed by the indicated cancer cell lines. 2nd Ab only was used as a negative control.

[2] = molecular target: T1, CLDN6 endogenously expressed by human …; test: FACS, 0.3 µg Ab, ARK2 cells
Experimental: as §1

[3] = molecular target: T2, mouse CLDN6 fused to GFP, expressed on engineered HEK293T cells (mouse, UniProt Q9Z262 1-219); test: FACS, 293T clone with mouse CLDN6, dose not given
T2 construct: whole, on cells; also called HEK293T-CLDN6-mGFP Artificial CLDN6+ (mouse); murine CLDN6; not shown: GFP tag
T2 sequence (looked up): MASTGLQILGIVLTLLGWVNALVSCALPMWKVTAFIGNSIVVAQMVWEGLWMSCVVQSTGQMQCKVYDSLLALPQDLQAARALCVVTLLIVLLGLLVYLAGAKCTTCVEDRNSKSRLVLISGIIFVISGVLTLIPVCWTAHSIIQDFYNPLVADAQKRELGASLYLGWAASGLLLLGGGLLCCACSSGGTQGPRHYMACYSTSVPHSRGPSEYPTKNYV
Experimental: Humanized antibodies described in Table 8 were constructed and expressed as essentially described in Example 5. FACS assays were carried out as essentially described in Example 5 to determine relative antigen binding strengths of the humanized antibodies. Two doses (1.5 μg or 0.3 μg) of the humanized antibodies were tested for binding to either human CLDN6 or murine CLDN6 which proteins were expressed by engineered 293T clones.

[4] = molecular target: T3, human CLDN6 fused to GFP, expressed on engineered HEK293T cells (HEK293T-CLDN6-mGFP) (human, UniProt P56747 1-220); test: FACS, 0.3 µg Ab, 293T clone with human CLDN6
T3 construct: It calls residues 1-21 a signal peptide; also called Claudin-6; HEK293T-CLDN6-mGFP Artificial CLDN6+; not shown: mGFP tag
T3 sequence: T1 sequence
Outline: (§2)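 Engineered 293T clones expressing human CLDN6 were detached with EDTA and incubated with Alexa Fluor 647 NHS ester-labelled humanized antibody, at 0.3 µg or 1.5 µg, for 30 min on ice in the dark. After washing, the cells were read by flow cytometry on a BD Accuri C6 in channel FL4H. Fluorescence in this direct-binding assay reflects relative antigen binding strength.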

[5] = molecular target: T3, human CLDN6 fused to GFP, expressed on …; test: FACS, 1.5 µg Ab, 293T clone with human CLDN6
Outline: as §2

[6] = molecular target: T1, CLDN6 endogenously expressed by human …; test: FACS, 1.5 µg Ab, OVCA429 cells

FACS fluorescence [1]: 38400
FACS fluorescence [2]: 19100
FACS fluorescence [3]: 3640
FACS fluorescence [4]: 176000
FACS fluorescence [5]: 327000
FACS fluorescence [6]: 64800
B1: AB4-chim (antibody, V domains shown)
VH: QVQLQQSGAELARPGASVKMSCKASGYTFTSYTMHWIKQRPGQGQEWIGYINPSSTYTHYIKKFKDKATLTADKSSSTAYMQLRSLTSEDSAVYYCSRGELGGFAYWGQGTLVTVSA
VL: DVVMTQTPLSLPVSLGDQASISCRSSQSLVHSDGNTYLNWYLQKPGQSPKLLIYKVSNRFSGVPDRFSGSGSGTDFTLKIRRVEAEDLGVYFCSQSTHVPYTFGGGTKLEIK
notes: 'chim' is the pre-humanized form (parental variable regions); also called pre-humanized (chimeric) form of AB4
